Measured values as given in patent US20110091971A1, “Differentiation of Pluripotent Stem Cells” (priority 2008, published 2011).

B1: ACTN58: activin A variant peptide, SEQ ID 59 (protein)
chain: GLECDGKVNICCKKQSFGQTKDIGWNDWIIAPSGYHGGGCTGECPSHIAGTSGSSLSFHSTVINHYRMRGHSPWANLKSCCSPTKLRPMSMLYYDDGQNIIKKDIQNMKVEECGCT
B2: ACTN30: activin A variant peptide, SEQ ID 31 (protein)
chain: GLECDGKVNYCCKKQNFVSFKDIGWNDWIIAPSGYHANKCSGLCPSHIAGTSGSSLSFHSTVINHYRMRGHSPFSKMGACCVPTKLRPMSMLYYDDGQNIIKKDIQNMIVEECGCS
B3: ACTN37: activin A variant peptide, SEQ ID 38 (protein)
chain: GLECDGKVNLCCKKQDFVSFKDIGWNDWIIAPSGYHANRCSGKCPSHIAGTSGSSLSFHSTVINHYRMRGHSPFSDMGACCIPTKLRPMSMLYYDDGQNIIKKDIQNMIVEECGCS
B4: ACTN33: activin A variant peptide, SEQ ID 34 (protein)
chain: GLECDGKVNLCCKKQNFVSFKDIGWNDWIIAPSGYHANECMGKCPSHIAGTSGSSLSFHSTVINHYRMRGHSPFSDMGACCIPTKLRPMSMLYYDDGQNIIKKDIQNMIVEECGCS
B5: ACTN34: activin A variant peptide, SEQ ID 35 (protein)
chain: GLECDGKVNYCCKKQLFVSFKDIGWNDWIIAPSGYHANHCTGKCPSHIAGTSGSSLSFHSTVINHYRMRGHSPFSDLGSCCVPTKLRPMSMLYYDDGQNIIKKDIQNMIVEECGCS
B6: ACTN31: activin A variant peptide, SEQ ID 32 (protein)
chain: GLECDGKVNTCCKKQLFVSFKDIGWNDWIIAPSGYHANHCSGKCPSHIAGTSGSSLSFHSTVINHYRMRGHSPFSDMGSCCIPTKLRPMSMLYYDDGQNIIKKDIQNMIVEECGCS

System: H1 or H9 human embryonic stem cells
Experiment: Activin A bioassay: differentiation of human embryonic stem cells to definitive endoderm, cell number and SOX17 intensity by high content analysis (96-well, four days);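 as to Cell Number average: Raw total cell count per well from high content imaging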;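 as to Sox 17 Intensity average: total fluorescence of the cell multiplied by cell area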
Assay type: cell-based
Conditions: assay dilution 1:20
How it was run: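 Read-out was cell count and integrated SOX17 immunofluorescence by high-content imaging, with each well divided by the mean of the 100 ng/ml activin A control. Over the four-day culture, test samples were given in DMEM:F12 with 0.5% FCS plus 20 ng/ml Wnt3a for the first two days and in 2% FCS alone for the last two. Cells were H1 or H9 hESC clusters grown on Matrigel.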

[1] = supernatant concentration 10x, assay plates #007, #009, #010
[2] = supernatant concentration 10x, control = R&D Sys Activin A 100 ng/ml on same plate
[3] = supernatant concentration 50x, assay plates #008, #009
[4] = supernatant concentration 50x, control = R&D Sys Activin A 100 ng/ml on same plate
[5] = concentrated supernatant (10x; ACTD3 4x)

| Molecule | Cell Number average [1] | Sox 17 Intensity average [1] | Sox 17 Intensity % of control [2] [%] | Cell Number average [3] | Sox 17 Intensity average [3] | Sox 17 Intensity % of control [4] [%] | Cell Number average [5] | Sox 17 Intensity average [5] | Sox 17 Intensity % of control (concentrated supernatant (10x; ACTD3 4x), control = R&D Sys Activin A 100 ng/ml) [%] |
| --- | --- | --- | --- | --- | --- | --- | --- | --- | --- |
| B1 | 11078 | 6.70E+05 | 3.0 | 13214 | 3.78E+06 | 6.8 |  |  |  |
| B2 | 7357 | 6.73E+05 | 3.0 | 5013 | 2.87E+06 | 5.2 |  |  |  |
| B3 | 3957 | 1.35E+06 | 6.1 | 2902 | 5.89E+06 | 10.6 |  |  |  |
| B4 | 3588 | 2.15E+06 | 9.7 | 3383 | 6.50E+06 | 11.8 |  |  |  |
| B5 | 10063 | 5.69E+07 | 257.4 | 12163 | 1.47E+08 | 266.9 | 11794 | 8.08E+07 | 185 |
| B6 | 10450 | 5.44E+07 | 246.3 | 11148 | 1.49E+08 | 269.7 |  |  |  |
